Data taken from patent US20220273713A1, “METHOD OF INHIBITING OR ACTIVATING GAMMA DELTA T CELLS” (The University of Melbourne, priority 2019, published 2022).
Several values for one entry are separate records, joined by “and”; a condition that tells them apart may be missing. Identical values can stand only once. Entries after “also recorded” stand apart in the source; their conditions may differ.

Legend:
LM-MEL-62 melanoma cells = assay: In vitro killing assays (antibody titration, E:T titration), MTS; type: cell-based, human
Procedure: Vγ9Vδ2 cells were isolated from either healthy donor (Red Cross Australia) or cancer patient derived PBMC using TCRγ/δ+ T Cell Isolation Kit (Miltenyi). Patients provided informed consent and research was approved under HREC 14/425. […] For all assays LM-MEL-62 melanoma cells were plated out at 10,000 cells/well in 100 μl RF10 media in 96-well flat bottomed plates and left to adhere overnight at 37 degrees C. and 5% CO2. […] Cells were incubated at 37 degrees C. and 5% CO2. At day 3 Vγ9Vδ2 cells were washed out and 100 μl MTS reagent was added to wells for 1 hour as per manufacturers protocol (Promega, USA). Plates were subsequently read at 490 nm using a Spectrostar Nano microplate reader (BMG Labtech) to determine cell viability corrected for background absorbance.

Vγ9Vδ2 cells = assay: Luminex (Vγ9Vδ2): cytokine/chemokine secretion by pre-expanded Vγ9Vδ2 cells; type: cell-based, human; details: for IL-4 / IL-8 / GMCSF / ICAM-1 / IFNγ / IL-13 / IL-17A / MIP-1a / MIP-1b / TNFα / sE-selectin / sP-Selectin: 16 hrs, antibodies 10 μg/ml, Zoledronic acid 4 μM, HMBPP 0.5 ng/ml, duplicates, 0 set to 0.1;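 as to all read-outs here: Vγ9Vδ2 cells purified from PBMC, activated 48 h with CD3 and CD28 plus IL-2, expanded 14 days in IL-2, then thawed and rested overnight in IL-2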
Procedure: Briefly, Vγ9Vδ2 cells were isolated from 1 healthy donor (Red Cross Australia) and 1 cancer patient derived PBMC using TCRγ/δ+ T Cell Isolation Kit (Miltenyi). Cells were stimulated for 48 hours in TCRPMI supplemented with 100u/ml IL-2, CD3 (10 μg/ml) and CD28 (1 μg/ml). Cells were washed and grown for 14 days in TCRPMI supplemented with 100u/ml IL-2 at 37 degrees C. and 5% CO2, and then frozen down. […] Vγ9Vδ2 were defrosted and rested overnight in TCRPMI supplemented with 50u/ml IL-2 at 37 degrees C. and 5% CO2. […] All samples were run with appropriate controls and standards.

[1] = γδT cells from a healthy donor, listed as 259
[2] = γδT cells from patient 1 (melanoma patient), listed as 259

B1: antibody 259: agonistic anti-BTN2A1 antibody; VL SEQ ID NO: 156, VH SEQ ID NO: 160 (antibody, V domains shown)
VH: EVQLLESGGGLVQPGGSLRLSCAASGFTFSSYAMQWVRQAPGKGLEWVSRIGPSGGGTMYADSVKGRFTISRDNSKNTLYLQMNSLRAEDMAVYYCARDLGGLSVLFDYWGQGTLVTVSS
VL: QSELTQPPSASETPGQRVTISCSGSSSNIGSNTVSWFQQLPGSAPRLLIYNDHRRPSGVPDRFSGSKSGTSASLVISGLQSQDEADYYCSAWDDSLNGVVFGGGTKLTVL
modifications: amino acid sequence of the VH of antibody 259; amino acid sequence of the VL of antibody 259
tumour cell killing compared to treatment with zoledronic acid (LM-MEL-62 melanoma cells; E:T titration 2:1 to 1:16, 10 ug/ml antibody 259 or 4 uM zoledronate, both donors): killing occurred to a lesser extent
induction of LM-MEL-62 cell killing, 259 compared with 253 (LM-MEL-62 melanoma cells; LM-MEL-62 with Vγ9Vδ2 cells 1:1, antibody titration, listed as 259): more potent inducer of cell killing than antibody 253; also recorded: lower viability rates of LM-MEL-62 cells when compared to antibody 253
cytokine/chemokine secretion, in words (Vγ9Vδ2 cells; across both donors): substantial increase in multiple analytes
cytokine/chemokine secretion, in words (Vγ9Vδ2 cells; healthy donor derived Vγ9Vδ2 cells, vs isotype (BM4)): no IL-4 was detected
IL-4 (Vγ9Vδ2 cells; γδT cells from a healthy donor): 0.1 pg/mL
IL-8 (Vγ9Vδ2 cells; γδT cells from a healthy donor): 0.1 pg/mL
GMCSF (Vγ9Vδ2 cells; [1]): 578.23 pg/mL and 608.66 pg/mL
ICAM-1 (Vγ9Vδ2 cells; [1]): 227.66 pg/mL and 226.25 pg/mL
IFNγ (Vγ9Vδ2 cells; [1]): 359.53 pg/mL and 412.2 pg/mL
IL-13 (Vγ9Vδ2 cells; [1]): 23.33 pg/mL and 31.31 pg/mL
IL-17A (Vγ9Vδ2 cells; [1]): 3.7 pg/mL and 4.17 pg/mL
MIP-1a (Vγ9Vδ2 cells; [1]): 301.77 pg/mL and 286.07 pg/mL
MIP-1b (Vγ9Vδ2 cells; [1]): 9757.6 pg/mL and 9064.66 pg/mL
TNFα (Vγ9Vδ2 cells; [1]): 451.81 pg/mL and 481.49 pg/mL
sE-selectin (Vγ9Vδ2 cells; [1]): 259.93 pg/mL and 300.24 pg/mL
sP-Selectin (Vγ9Vδ2 cells; [1]): 2291.35 pg/mL and 2223.07 pg/mL
GMCSF (Vγ9Vδ2 cells; [2]): 1135.87 pg/mL and 1151.41 pg/mL
ICAM-1 (Vγ9Vδ2 cells; [2]): 798.07 pg/mL and 755.13 pg/mL
IFNγ (Vγ9Vδ2 cells; [2]): 598.1 pg/mL and 740.33 pg/mL
IL-4 (Vγ9Vδ2 cells; [2]): 490.79 pg/mL and 389.47 pg/mL
IL-8 (Vγ9Vδ2 cells; [2]): 0.93 pg/mL and 1.06 pg/mL
IL-13 (Vγ9Vδ2 cells; [2]): 399.99 pg/mL and 461.27 pg/mL
IL-17A (Vγ9Vδ2 cells; [2]): 5.86 pg/mL and 6.55 pg/mL
MIP-1a (Vγ9Vδ2 cells; [2]): 317.76 pg/mL and 361.32 pg/mL
MIP-1b (Vγ9Vδ2 cells; [2]): 6921.27 pg/mL and 8238.42 pg/mL
TNFα (Vγ9Vδ2 cells; [2]): 1130.35 pg/mL and 1137.89 pg/mL
sE-selectin (Vγ9Vδ2 cells; [2]): 311.65 pg/mL and 368.09 pg/mL
sP-Selectin (Vγ9Vδ2 cells; [2]): 2170.46 pg/mL and 2424.08 pg/mL
